# From patent publication US20160319321
# “And” between values parts separate entries of the source, which are not always exact repeats. Equal entries are not always repeated.
# T1: Lys(Dnp)-IDEGDR-HAEGT-Lys(Abz)amide
# T1 chain: KIDEGDRHAEGTK
# T2: DVKPGQPLEDDDDK-[Arg34]GLP-1(9-37)
# T2 chain: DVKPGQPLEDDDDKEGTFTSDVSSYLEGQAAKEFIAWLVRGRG
# T3: Lys(Dnp)-DQGDR-HGEGT-Lys(Abz)amide
# T3 chain: KDQGDRHGEGTK
# T4: Lys(Dnp)-FDEGDR-HAEGT-Lys(Abz)amide
# T4 chain: KFDEGDRHAEGTK
# T5: Lys(Dnp)-EQGDR-HGEGT-Lys(Abz)amide
# T5 chain: KEQGDRHGEGTK
# T6: Lys(Dnp)-YEGDR-HAEGT-Lys(Abz)amide
# T6 chain: KYEGDRHAEGTK
# T7: Lys(Dnp)-DGGDR-HGEGT-Lys(Abz)amide
# T7 chain: KDGGDRHGEGTK
# T8: Lys(Dnp)-DGGDR-HAEGT-Lys(Abz)amide
# T8 chain: KDGGDRHAEGTK
# T9: Lys(Dnp)-EQGDR-HAEGT-Lys(Abz)amide
# T9 chain: KEQGDRHAEGTK
# T10: Lys(Dnp)-EYGDR-EGTFT-Lys(Abz)amide
# T10 chain: KEYGDREGTFTK
# T11: Lys(Dnp)-DDGDR-HSQGT-Lys(Abz)amide
# T11 chain: KDDGDRHSQGTK
# T12: Lys(Dnp)-AEGDR-HAEGT-Lys(Abz)amide
# T12 chain: XAEGDRHAEGTX
# T13: Lys(Dnp)-EDGDR-EGTFT-Lys(Abz)amide
# T13 chain: KEDGDREGTFTK
# T14: Lys(Dnp)-LEGDR-HAEGT-Lys(Abz)amide
# T14 chain: KLEGDRHAEGTK
# T15: Lys(Dnp)-SGGDRHAEGT-Lys(Abz)amide
# T15 chain: KSGGDRHAEGTK
# T16: Lys(Dnp)-ELGDR-HGEGT-Lys(Abz)amide
# T16 chain: KELGDRHGEGTK
# T17: Lys(Dnp)-DEGDR-HSQGT-Lys(Abz)amide
# T17 chain: KDEGDRHSQGTK
# T18: Lys(Dnp)-DLGDR-EGTFT-Lys(Abz)amide
# T18 chain: KDLGDREGTFTK
# T19: Lys(Dnp)-EGGDR-HAEGT-Lys(Abz)amide
# T19 chain: KEGGDRHAEGTK
# T20: Lys(Dnp)-DWGDR-EGTFT-Lys(Abz)amide
# T20 chain: KDWGDREGTFTK
# T21: Lys(Dnp)-DDEGDR-HAEGT-Lys(Abz)amide
# T21 chain: KDDEGDRHAEGTK
# T22: Lys(Dnp)-DSGDR-EGTFT-Lys(Abz)amide
# T22 chain: KDSGDREGTFTK
# T23: Lys(Dnp)-EHGDR-EGTFT-Lys(Abz)amide
# T23 chain: KEHGDREGTFTK
# T24: Lys(Dnp)-IYGDRHAEGT-Lys(Abz)amide
# T24 chain: KIYGDRHAEGTK
# T25: Lys(Dnp)-MEGDR-HAEGT-Lys(Abz)amide
# T25 chain: KMEGDRHAEGTK
# T26: Lys(Dnp)-EEGDR-HAEGT-Lys(Abz)amide
# T26 chain: KEEGDRHAEGTK
# T27: Lys(Dnp)-DHGDR-EGTFT-Lys(Abz)amide
# T27 chain: KDHGDREGTFTK
# T28: Lys(Dnp)-DQGDR-HAEGT-Lys(Abz)amide
# T28 chain: KDQGDRHAEGTK
# T29: DVKPGEPLYDEGDR-[Arg34]GLP-1(9-37)
# T29 chain: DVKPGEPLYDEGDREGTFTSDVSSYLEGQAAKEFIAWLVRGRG
# T30: Lys(Dnp)-DYGDR-EGTFT-Lys(Abz)amide
# T30 chain: KDYGDREGTFTK
# T31: DVKPGQELYDEGDR-[Arg34]GLP-1(9-37)
# T31 chain: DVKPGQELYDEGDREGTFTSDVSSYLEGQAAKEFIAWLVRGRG
# T32: Lys(Dnp)-DSGDR-HGTFT-Lys(Abz)amide
# T32 chain: KDSGDRHGTFTK
# T33: Lys(Dnp)-DDGDR-HAEGT-Lys(Abz)amide
# T33 chain: KDDGDRHAEGTK
# T34: Lys(Dnp)-ESGDR-EGTFT-Lys(Abz)amide
# T34 chain: KESGDREGTFTK
# T35: Lys(Dnp)-DLGDR-HGEGT-Lys(Abz)amide
# T35 chain: KDLGDRHGEGTK
# T36: Lys(Dnp)-QEGDR-HGEGT-Lys(Abz)amide
# T36 chain: KQEGDRHGEGTK
# T37: Lys(Dnp)-EHGDR-HAEGT-Lys(Abz)amide
# T37 chain: KEHGDRHAEGTK
# T38: Lys(Dnp)-EEGDR-EGTFT-Lys(Abz)amide
# T38 chain: KEEGDREGTFTK
# T39: Lys(Dnp)-DLGDR-HSQGT-Lys(Abz)amide
# T39 chain: KDLGDRHSQGTK
# T40: Lys(Dnp)-IMGDRHAEGT-Lys(Abz)amide
# T40 chain: XIMGDRHAEGTX
# T41: Lys(Dnp)-DYGDR-HAEGT-Lys(Abz)amide
# T41 chain: KDYGDRHAEGTK
# T42: Lys(Dnp)-NEDGDR-HAEGT-Lys(Abz)amide (not fully specified)
# T42 chain: KNEDGDRHAEGTK
# Assays:
# [1] = target: T1, Lys(Dnp)-IDEGDR-HAEGT-Lys(Abz)amide
# [2] = target: T2, DVKPGQPLEDDDDK-[Arg34]GLP-1(9-37)
# [3] = target: T3, Lys(Dnp)-DQGDR-HGEGT-Lys(Abz)amide
# [4] = target: T4, Lys(Dnp)-FDEGDR-HAEGT-Lys(Abz)amide
# [5] = target: T5, Lys(Dnp)-EQGDR-HGEGT-Lys(Abz)amide
# [6] = target: T6, Lys(Dnp)-YEGDR-HAEGT-Lys(Abz)amide
# [7] = target: T7, Lys(Dnp)-DGGDR-HGEGT-Lys(Abz)amide
# [8] = target: T8, Lys(Dnp)-DGGDR-HAEGT-Lys(Abz)amide
# [9] = target: T9, Lys(Dnp)-EQGDR-HAEGT-Lys(Abz)amide
# [10] = target: T10, Lys(Dnp)-EYGDR-EGTFT-Lys(Abz)amide
# [11] = target: T11, Lys(Dnp)-DDGDR-HSQGT-Lys(Abz)amide
# [12] = target: T12, Lys(Dnp)-AEGDR-HAEGT-Lys(Abz)amide
# [13] = target: T13, Lys(Dnp)-EDGDR-EGTFT-Lys(Abz)amide
# [14] = target: T14, Lys(Dnp)-LEGDR-HAEGT-Lys(Abz)amide
# [15] = target: T15, Lys(Dnp)-SGGDRHAEGT-Lys(Abz)amide
# [16] = target: T16, Lys(Dnp)-ELGDR-HGEGT-Lys(Abz)amide
# [17] = target: T17, Lys(Dnp)-DEGDR-HSQGT-Lys(Abz)amide
# [18] = target: T18, Lys(Dnp)-DLGDR-EGTFT-Lys(Abz)amide
# [19] = target: T19, Lys(Dnp)-EGGDR-HAEGT-Lys(Abz)amide
# [20] = target: T20, Lys(Dnp)-DWGDR-EGTFT-Lys(Abz)amide
# [21] = target: T21, Lys(Dnp)-DDEGDR-HAEGT-Lys(Abz)amide
# [22] = target: T22, Lys(Dnp)-DSGDR-EGTFT-Lys(Abz)amide
# [23] = target: T23, Lys(Dnp)-EHGDR-EGTFT-Lys(Abz)amide
# [24] = target: T24, Lys(Dnp)-IYGDRHAEGT-Lys(Abz)amide
# [25] = target: T25, Lys(Dnp)-MEGDR-HAEGT-Lys(Abz)amide
# [26] = target: T26, Lys(Dnp)-EEGDR-HAEGT-Lys(Abz)amide
# [27] = target: T27, Lys(Dnp)-DHGDR-EGTFT-Lys(Abz)amide
# [28] = target: T28, Lys(Dnp)-DQGDR-HAEGT-Lys(Abz)amide
# [29] = target: T29, DVKPGEPLYDEGDR-[Arg34]GLP-1(9-37)
# [30] = target: T30, Lys(Dnp)-DYGDR-EGTFT-Lys(Abz)amide
# [31] = target: T31, DVKPGQELYDEGDR-[Arg34]GLP-1(9-37)
# [32] = target: T32, Lys(Dnp)-DSGDR-HGTFT-Lys(Abz)amide
# [33] = target: T33, Lys(Dnp)-DDGDR-HAEGT-Lys(Abz)amide
# [34] = target: T34, Lys(Dnp)-ESGDR-EGTFT-Lys(Abz)amide
# [35] = target: T35, Lys(Dnp)-DLGDR-HGEGT-Lys(Abz)amide
# [36] = target: T36, Lys(Dnp)-QEGDR-HGEGT-Lys(Abz)amide
# [37] = target: T37, Lys(Dnp)-EHGDR-HAEGT-Lys(Abz)amide
# [38] = target: T38, Lys(Dnp)-EEGDR-EGTFT-Lys(Abz)amide
# [39] = target: T39, Lys(Dnp)-DLGDR-HSQGT-Lys(Abz)amide
# [40] = target: T40, Lys(Dnp)-IMGDRHAEGT-Lys(Abz)amide
# [41] = target: T41, Lys(Dnp)-DYGDR-HAEGT-Lys(Abz)amide
# [42] = target: T42, Lys(Dnp)-NEDGDR-HAEGT-Lys(Abz)amide
protein,measurement,setting,value
"bovine Enterokinase light chain variant (C112A, L134K, I135K) (protein) IVGGSDSREGAWPWVVALYFDDQQVCGASLVSRDWLVSAAHCVYGRNMEPSKWKAVLGLHMASNLTSPQIETRLIDQIVINPHYNKRRKNNDIAMMHLEMKVNYTDYIQPIALPEENQVFPPGRICSIAGWGAKKYQGSTADVLQEADVPLLSNEKCQQQMPEYNITENMVCAGYEAGGVDSCQGDSGGPLMCQENNRWLLAGVTSFGYQCALPNRPGVYARVPRFTEWIQSFLH",Activity (%),[1],283%
same,Activity (%),[2],100%
same,Activity (%),[3],467%
same,Activity (%),[4],200%
same,Activity (%),[5],432%
same,Activity (%),[6],377%
same,Activity (%),[7],301%
same,Activity (%),[8],431%
same,Activity (%),[9],808%
same,Activity (%),[10],353%
same,Activity (%),[11],310%
same,Activity (%),[12],382%
same,Activity (%),[13],505%
same,Activity (%),[14],398%
same,Activity (%),[15],243%
same,Activity (%),[16],502%
same,Activity (%),[17],621%
same,Activity (%),[18],438%
same,Activity (%),[19],586%
same,Activity (%),[20],410%
same,Activity (%),[21],113%
same,Activity (%),[22],342%
same,Activity (%),[23],339%
same,Activity (%),[24],117%
same,Activity (%),[25],419%
same,Activity (%),[26],988%
same,Activity (%),[27],398%
same,Activity (%),[28],770%
same,Activity (%),[29],895%
same,Activity (%),[30],373%
same,Activity (%),[31],1040%
same,Activity (%),[32],172%
same,Activity (%),[33],604% and 601%
same,Activity (%),[34],362%
same,Activity (%),[35],438%
same,Activity (%),[36],275%
same,Activity (%),[37],549%
same,Activity (%),[38],580%
same,Activity (%),[39],268%
same,Activity (%),[40],125%
same,Activity (%),[41],505%
same,Activity (%),[42],114%
